{"source": "patent US20260234269", "proteins": {"B1": {"name": "846.2H3 (protein)", "chain 1": "QIQLVQSGPELKKPGETVKISCKASGYTFTNYGMNWVKQAPGKGLKWMGWINTYTGEPSYADDFKGRFAFSLETSASTAYLQINNLKNEDMATYFCARWGGYDGDYYAMDYWGQGTSVTVSS", "chain 2": "NIMMTQSPSSLAVSAGEKVTMSCKSSQSVLYSSNQKNYLAWYQQKPGQSPKLLIYWASTRESGVPDRFTGSGSGTDFTLTISSVQPEDLAVYYCHQYLSSLTFGAGTKLELK"}, "B2": {"name": "mIMT001 (IMT001) (protein)", "chain 1": "QIQLVQSGPELKKPGETVKISCKASGYTFTNYGMNWVKQAPGKGLKWMGWINTNTGEPTYVEEFKGRFAFSLETSASTAYLQINNLKNEDTATYFCAPYDNFFAYWGQGTLVTVSA", "chain 2": "DIVITQDELSNPVTSGESVSISCRSSKSLLYKDGKTYLNWFLQRPGQSPQLLIYLMSTHASGVSDRFSGSGSGTDFTLEISRVKAEDVGVYYCQQLVDYPLTFGAGTKLELK"}, "B3": {"name": "846.1F5 (protein)", "chain 1": "B1 chain 1", "chain 2": "B1 chain 2"}, "B4": {"name": "2D10.2B2 (protein)", "chain 1": "QVQLQQSGPELVKPGASVKISCKASGYTFTDYYINWVKQRPGQGLEWIGWIYPGSNDTKYNEKFKGKATLTVDTSSSTAYMQLGSLTSEDSAVYFCANYFGCSGWFFDVWGTGTTVTVSS", "chain 2": "DIVMTQAAFSNPVTLGTSASISCRSSKSLLHSDGITYLYWYLQRPGQSPQLLIYRMSNLASGVPDRFSGSGSGTDFTLRISRVEAEDVGVYYCAQMIEFPLTFGAGTILELK"}, "B5": {"name": "6H6.2D6 (protein)", "chain 1": "QIQLVQSGPELKKPGETVKISCKASGYTFTTYGMSWVKQAPGKGLKWMAWINTYSGVPTYADDFKGRFAFSLETSASTAYLQINNLTNEDTATYFCARGPYAMDYWGQGTSVTVSS", "chain 2": "DIQMTQTTSSLSASLGDRVTISCSASQGISNYLNWYQQKPDGTVKLLIYYTSSLHSGVPSRFSGSGSGTDYSLTISNLEPEDIATYYCQQYSELPYTFGSGTKLEIK"}, "B6": {"name": "20H5.A3 (protein)", "chain 1": "B5 chain 1 with T17S, T28A, K38Q, A49G, I51V, Y60C, T87R", "chain 2": "B5 chain 2 with S22N, G28D, H55L, Y87F, E93K, K103H"}, "B7": {"name": "846T.1H2 (protein)", "chain 1": "QIQLVQSGPELKKPGETVKISCKASGYTFTNYGMNWVKQAPGKGLKWMGWINTNTGEPTYAEEFKGRFAFSLETSASTAYLQINNLKNEDTATYFCATGGGNWDFDYWGQGTTLTVSS", "chain 2": "not shown"}, "B8": {"name": "19B5.2E6 (protein)", "chain 1": "B5 chain 1 with G33A, A49G, F64L, T87K", "chain 2": "B5 chain 2 with S30N, T51A, E93Q, L94V"}, "B9": {"name": "13H12.2F8 (protein)", "chain 1": "QIQLVQSGPELKKPGETVKISCKASGYTFTTYGMSWVKQAPGKGLKWMGWINTYSGVPTYADDFKGRFAFSLETSASTAYLQINNLKNEDTATYFCAVPYEYDGAYWGQGTLVTVSA", "chain 2": "not shown"}, "B10": {"name": "23H9.2E4 (protein)", "chain 1": "B5 chain 1 with G33A, A49G, F64L, T87K", "chain 2": "B5 chain 2 with S30N, T51A, E93Q, L94V"}, "B11": {"name": "15G7.2A7 (protein)", "chain 1": "EVQLQQSGPELVKPGASVKISCKASGYTFTDYYMNWVKQSHGKSLEWIGDINPNNGGTNYNQKFKGKATLTVDKSSSTAYMELRSLTSEDSAVYYCTSGYGFPYWGQGTLVTVSA", "chain 2": "DIQMNQSPSSLSASLGDTISITCRASQNINIWLSWYQQKPGNIPQLLIYKASNLHTGVPSRFSGSGSGTDFTLTISSLQPEDIATYYCLQGQSYPLTFGAGTKLVMK"}, "B12": {"name": "4G2.2G6 (protein)", "chain 1": "QIQLVQSGPDLKKPGETVKISCKASGYTFTTYVMSWVKQAPGKDLKWMGWINTHSGVPTYADDFKGRFDFSLETSANTAFLQINNLKNEDTATYFCTRDGNDGDAMDNWGQGTSVTVSS", "chain 2": "not shown"}, "B13": {"name": "4A11.2B5 (protein)", "chain 1": "QVQLQQSGPELVKPGASVKISCKASGYSFTNYYIHWVKQRPGQGLEWIGWIYPGSGNTNYNEKFKGKATLTADTSSSTTNMQLSSLTSEDSAVYYCSTAPGGFDVWGSGTTVTVSS", "chain 2": "B4 chain 2 with I97L, I108K"}, "B14": {"name": "14H10.2C9 (protein)", "chain 1": "B9 chain 1 with S35G, G44D, N84S, A97S, V98T", "chain 2": "not shown"}, "B15": {"name": "20D11.2C6 (protein)", "chain 1": "B11 chain 1 with Y32F, M34I, N54K, T58I, Q62P, G66I, A79S, E82D, S85G", "chain 2": "B11 chain 2 with S20T, N30Y, Q45K, S77T, Y87F, V105E"}, "B16": {"name": "19D9.2E5 (protein)", "chain 1": "B9 chain 1 with S35G, A76T, T91M, V98T", "chain 2": "not shown"}, "B17": {"name": "13A12.2E5 (protein)", "chain 1": "QIQLVQSGPELKKPGETVKISCKTSGYKFKTYVMSWVKQAPGKALKWMGWINTYSGVPTYADDFKGRFAFSLETSASTAYLEIINLKNEDTATYFCARDGNYGDPMDYWGQGTSVTVSS", "chain 2": "DVVMTQTPLTLSVAIGQPASISCKSSQSLLYTNGKTYLNWLLQRPGQSPKRLIYLLSKLDSGVPDRFSASGSGTDFTLKISRVEAEDLGVYYCLQSTHFPLTFGAGTKLEMK"}, "B18": {"name": "3B11.2G2 (protein)", "chain 1": "B17 chain 1", "chain 2": "not shown"}}, "molecular_target": "Human Galectin-3 protein (Acro Biosystems, GA3-H5129)", "assay": "ELISA, hGal3 coated, competitor hTIM3 (FIG. 24)", "note": "Residue numbers refer to the chain shown, from its start.", "data": [{"protein": "B1", "values": [{"measurement": "GAL3-TIM3 assembly, % of level without antibody", "result": "to less than 5% of levels observed in the absence of a GAL3-targeted antibody"}]}, {"protein": "B2", "values": [{"measurement": "GAL3-TIM3 assembly, % of level without antibody", "result": "to 5-20% of levels observed in the absence of a GAL3-targeted antibody"}]}, {"protein": "B3", "values": [{"measurement": "GAL3-TIM3 assembly, % of level without antibody", "result": "to 5-20% of levels observed in the absence of a GAL3-targeted antibody"}]}, {"protein": "B4", "values": [{"measurement": "GAL3-TIM3 assembly, % of level without antibody", "result": "to 5-20% of levels observed in the absence of a GAL3-targeted antibody"}]}, {"protein": "B5", "values": [{"measurement": "GAL3-TIM3 assembly, % of level without antibody", "result": "to 5-20% of levels observed in the absence of a GAL3-targeted antibody"}]}, {"protein": "B6", "values": [{"measurement": "GAL3-TIM3 assembly, % of level without antibody", "result": "to 5-20% of levels observed in the absence of a GAL3-targeted antibody"}]}, {"protein": "B7", "values": [{"measurement": "GAL3-TIM3 assembly, % of level without antibody", "result": "to 5-20% of levels observed in the absence of a GAL3-targeted antibody"}]}, {"protein": "B8", "values": [{"measurement": "GAL3-TIM3 assembly, % of level without antibody", "result": "to 20-50% of levels observed in the absence of a GAL3-targted antibody"}]}, {"protein": "B9", "values": [{"measurement": "GAL3-TIM3 assembly, % of level without antibody", "result": "to 20-50% of levels observed in the absence of a GAL3-targted antibody"}]}, {"protein": "B10", "values": [{"measurement": "GAL3-TIM3 assembly, % of level without antibody", "result": "to 20-50% of levels observed in the absence of a GAL3-targted antibody"}]}, {"protein": "B11", "values": [{"measurement": "GAL3-TIM3 assembly, % of level without antibody", "result": "to 50-75% of levels observed in the absence of a GAL3-targeted antibody"}]}, {"protein": "B12", "values": [{"measurement": "GAL3-TIM3 assembly, % of level without antibody", "result": "to 50-75% of levels observed in the absence of a GAL3-targeted antibody"}]}, {"protein": "B13", "values": [{"measurement": "GAL3-TIM3 assembly, % of level without antibody", "result": "to 50-75% of levels observed in the absence of a GAL3-targeted antibody"}]}, {"protein": "B14", "values": [{"measurement": "GAL3-TIM3 assembly, % of level without antibody", "result": "to 50-75% of levels observed in the absence of a GAL3-targeted antibody"}]}, {"protein": "B15", "values": [{"measurement": "GAL3-TIM3 assembly, % of level without antibody", "result": "to 50-75% of levels observed in the absence of a GAL3-targeted antibody"}]}, {"protein": "B16", "values": [{"measurement": "GAL3-TIM3 assembly, % of level without antibody", "result": "to 50-75% of levels observed in the absence of a GAL3-targeted antibody"}]}, {"protein": "B17", "values": [{"measurement": "GAL3-TIM3 assembly, % of level without antibody", "result": "to 50-75% of levels observed in the absence of a GAL3-targeted antibody"}]}, {"protein": "B18", "values": [{"measurement": "GAL3-TIM3 assembly, % of level without antibody", "result": "to 50-75% of levels observed in the absence of a GAL3-targeted antibody"}]}]}
